This is an account of results in paper PMC3950713.

Common to all, as to assay: MST
In one data set the target is T1, HpDprA(5-217)H8E (Helicobacter pylori 26695, UniProt O25100 5-217, H8E).
T1 sequence: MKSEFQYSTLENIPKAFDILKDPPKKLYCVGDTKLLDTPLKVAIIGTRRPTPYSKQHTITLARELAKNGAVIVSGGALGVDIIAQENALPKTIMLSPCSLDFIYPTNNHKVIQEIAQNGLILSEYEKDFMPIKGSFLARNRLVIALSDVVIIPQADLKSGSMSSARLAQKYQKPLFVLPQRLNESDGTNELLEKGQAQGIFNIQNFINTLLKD

For a further data set, the target named is T2, HpDprA(5-217)Y108E (Helicobacter pylori 26695, UniProt O25100 5-217, Y108E).
T2 sequence: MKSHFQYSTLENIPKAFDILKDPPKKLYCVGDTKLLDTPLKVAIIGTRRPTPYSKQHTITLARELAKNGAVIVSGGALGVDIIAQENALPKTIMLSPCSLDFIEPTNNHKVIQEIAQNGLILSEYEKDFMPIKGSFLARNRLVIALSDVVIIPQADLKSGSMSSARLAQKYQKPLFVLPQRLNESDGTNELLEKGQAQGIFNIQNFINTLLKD

The target in a further data set is T3, HpDprA(5-217)K137E/R143E (Helicobacter pylori 26695, UniProt O25100 5-217, K137E;R143E).
T3 sequence: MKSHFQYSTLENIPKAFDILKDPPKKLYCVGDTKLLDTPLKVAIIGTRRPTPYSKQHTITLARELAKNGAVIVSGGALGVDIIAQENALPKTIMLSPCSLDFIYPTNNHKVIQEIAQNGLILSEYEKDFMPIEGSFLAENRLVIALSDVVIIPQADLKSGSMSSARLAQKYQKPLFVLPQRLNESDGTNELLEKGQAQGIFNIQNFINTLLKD

The next data set deals with T4, HpDprA(5-217)R52E (Helicobacter pylori 26695, UniProt O25100 5-217, R52E).
T4 sequence: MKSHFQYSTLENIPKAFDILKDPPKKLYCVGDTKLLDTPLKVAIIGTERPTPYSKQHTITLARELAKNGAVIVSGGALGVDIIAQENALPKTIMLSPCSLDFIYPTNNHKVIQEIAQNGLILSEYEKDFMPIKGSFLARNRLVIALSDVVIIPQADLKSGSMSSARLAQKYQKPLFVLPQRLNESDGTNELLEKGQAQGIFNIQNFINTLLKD

A further data set addresses T5, HpDprA(5-225) (Helicobacter pylori 26695, UniProt O25100 5-225).
T5 sequence: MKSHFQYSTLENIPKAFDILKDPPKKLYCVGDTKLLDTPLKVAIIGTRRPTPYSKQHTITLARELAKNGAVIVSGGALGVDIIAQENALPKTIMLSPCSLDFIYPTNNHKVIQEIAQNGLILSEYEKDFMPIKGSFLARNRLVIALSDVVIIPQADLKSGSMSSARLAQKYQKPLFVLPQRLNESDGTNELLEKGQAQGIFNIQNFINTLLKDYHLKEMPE

The next data set has as its target T6, HpDprA(5-217)R143E (Helicobacter pylori 26695, UniProt O25100 5-217, R143E).
T6 sequence: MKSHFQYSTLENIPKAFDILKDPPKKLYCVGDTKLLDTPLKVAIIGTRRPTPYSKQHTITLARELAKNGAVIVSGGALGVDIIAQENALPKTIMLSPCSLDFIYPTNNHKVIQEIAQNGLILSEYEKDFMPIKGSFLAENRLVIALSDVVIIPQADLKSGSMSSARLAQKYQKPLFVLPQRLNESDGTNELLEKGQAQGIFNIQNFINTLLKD

The target in another data set is T7, HpDprA(5-217)Y11E (Helicobacter pylori 26695, UniProt O25100 5-217, Y11E).
T7 sequence: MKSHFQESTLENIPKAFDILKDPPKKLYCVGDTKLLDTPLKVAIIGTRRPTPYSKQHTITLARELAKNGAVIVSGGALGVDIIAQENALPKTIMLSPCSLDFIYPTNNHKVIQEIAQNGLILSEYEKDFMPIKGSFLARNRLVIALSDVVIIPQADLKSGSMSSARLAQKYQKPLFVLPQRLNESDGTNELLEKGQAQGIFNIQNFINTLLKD

With TTTTTTTTTTTTTTTTTTTTTTTTTTTTTTTTTTT (ssDNA) [dT35], the dissociation constant (Kd) with HpDprA(5-217)H8E stood at 66.3 ± 0.721 nM; in the data set with HpDprA(5-217)Y108E it was 351 ± 6.88 nM; in the data set with HpDprA(5-217)R52E, 9950 ± 367 nM; with HpDprA(5-225), 30.6 ± 0.998 nM; with HpDprA(5-217)R143E, 5470 ± 246 nM; with HpDprA(5-217)Y11E it was 55.9 ± 1.82 nM. In addition, the binding result with HpDprA(5-217)K137E/R143E is given as “no binding”.
